{
  "source": "patent US9809653B2",
  "about": "“Anti-LAMP1 antibodies and antibody drug conjugates, and uses thereof” (SANOFI, priority 2012, dated 2017)",
  "key": {"[1]": {"tested_on": "Colon Colo205 tumoral cells expressing LAMP1", "assay": "Internalization score by ImageStream multispectral imaging flow cytometer", "assay_type": "cell-based, human", "conditions": "Colo205, 10 μg/ml AlexaFluor488-labeled antibody", "description": "The internalization score (IS) is defined as a ratio of the fluorescence intensity inside the cell to the intensity of the entire cell. […] The higher the score, the greater the fluorescence intensity is inside the cell. As described by Amnis (see the world wide web at amnis.com), the inside of the cell is defined by an erosion of a mask that fits the membrane of the cell. The score is invariant to cell size and can accommodate concentrated bright regions and small dim spots. The ratio is mapped to a logarithmic scale to increase the dynamic range to values between {−inf, inf}. The thickness of the membrane (in pixels) determines which pixels are used to define the boundary and the membrane portions of the cell. The user supplies an ‘internal’ mask based on the brightfield image that covers the inside of the cell, the thickness of the membrane in pixels and the fluorescent channel of interest. The cell is divided into 2 regions: External (B) and internal (I). The user supplies the internal region as the mask. The external region is determined by: 1. Dilating the internal mask by the membrane thickness. 2. Combining 1 with the object mask of the channel of interest. 3. External region equals mask 2 and not the internal mask. Next, the mean intensity of the upper quartile of the pixels in each region is determined. The Internalization Score (IS) is then computed as follows:\nCells were washed by centrifugation with PBS 1% BSA at 400 g for 5 minutes. Cells were fixed and permeabilized using 100 μL of Perm/Fix buffer on ice for 20 minutes. Cells were washed by centrifugation with 1 mL of Perm/Wash Cell buffer at 400 g for 5 minutes.\nTo test whether internalized antibodies accumulate in lysosomes, simultaneous uptake of mAbs and AlexaFluor647-labeled CD107a (a lysosomal marker) were carried out. […] After incubation, 1 mL Perm/Wash Cell buffer was added to wash, before centrifuging (400 g, 5 min). The supernatant was flicked from the plate before the cells were fixed with 200 μL 1% formaldehyde on ice for 20 minutes. The fluorescence of cells was analyzed with the ImageStream multispectral imaging flow cytometer (Amnis corp.) using the Internalization feature. Five thousand events were acquired for each experimental condition and the corresponding images were analyzed using the IDEAS image-analysis software."}, "[2]": {"target": "T1, recombinant human LAMP1 coated on plate (Homo sapiens, UniProt P11279)", "T1 construct": "made in house; host or cells: HEK293 (293-F), transient expression, IMAC-purified", "T1 sequence (P11279 with tags, fused parts or gaps)": "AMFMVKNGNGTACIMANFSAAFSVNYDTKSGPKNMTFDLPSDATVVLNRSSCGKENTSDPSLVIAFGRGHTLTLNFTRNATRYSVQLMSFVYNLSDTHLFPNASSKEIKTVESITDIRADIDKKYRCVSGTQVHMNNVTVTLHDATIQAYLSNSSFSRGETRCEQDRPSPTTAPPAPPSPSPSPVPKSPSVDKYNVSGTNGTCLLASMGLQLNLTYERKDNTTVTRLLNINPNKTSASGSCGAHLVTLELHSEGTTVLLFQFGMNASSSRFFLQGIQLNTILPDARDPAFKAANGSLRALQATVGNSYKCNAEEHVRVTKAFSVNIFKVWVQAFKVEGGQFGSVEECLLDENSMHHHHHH", "assay": "Binding competition between anti-LAMP1 mAbs by ELISA", "description": "MAb format was chosen so that the two mAbs had different Fc domains (either human or murine). […] The results were reported as a percentage of the value obtained from the mAb alone at the same concentration.\nMAb format was chosen so that the two mAbs had different Fc domains (either human or murine). Individual measurements of mAb binding could be performed specifically by their unique specific binding to Fc (with Peroxidase-AffiniPure Goat Anti-Human IgG Ab, Fcγ Fragment Specific (Jackson 109-035-098) or with Peroxidase-AffiniPure Goat Anti-Mouse IgG Ab, Fcγ Fragment Specific (Jackson 115-035-164)). Results were reported as a percentage of the value obtained from the mAb alone at the same concentration, see Table 8."}, "[3]": {"target": "T2, recombinant human LAMP2 (Homo sapiens, UniProt P13473)", "T2 construct": "purchased R&D Systems 6228-LM", "T2 sequence (P13473 with tags, fused parts or gaps)": "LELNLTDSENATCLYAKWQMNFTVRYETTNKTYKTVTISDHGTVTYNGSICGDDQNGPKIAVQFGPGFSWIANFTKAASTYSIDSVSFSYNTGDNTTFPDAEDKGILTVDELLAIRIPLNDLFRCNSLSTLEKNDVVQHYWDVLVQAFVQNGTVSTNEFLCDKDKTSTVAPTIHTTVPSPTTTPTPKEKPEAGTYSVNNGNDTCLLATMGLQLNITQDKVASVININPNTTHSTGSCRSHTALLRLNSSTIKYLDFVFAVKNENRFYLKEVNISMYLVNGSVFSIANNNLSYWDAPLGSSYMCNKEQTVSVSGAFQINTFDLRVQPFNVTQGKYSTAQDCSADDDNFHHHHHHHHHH", "assay": "Specificity ELISA on recombinant human LAMP2", "assay_type": "binding", "experimental": "LAMP2 is the closest member of the LAMP family with 35% sequence identity to LAMP1. […] Anti-LAMP1 antibodies were added to the plates and detected by using rabbit anti-mouse IgG conjugated with horseradish peroxidase (Sigma; #A9044). Antibody binding was visualized by adding TMB-H2O2 buffer and read at a wavelength of 450 nm.\nLAMP2 is the closest member of the LAMP family with 35% sequence identity to LAMP1. Specificity of MAb4 was evaluated by ELISA as described in example 4.6 with either LAMP1 or LAMP2 soluble proteins, as shown in FIG. 41."}, "[4]": {"target": "T3, Mouse LAMP1 (Mus musculus, UniProt P11438)", "T3 construct": "made in house; host or cells: HEK293 (293-F), transient expression, IMAC-purified", "T3 sequence (P11438 with tags, fused parts or gaps)": "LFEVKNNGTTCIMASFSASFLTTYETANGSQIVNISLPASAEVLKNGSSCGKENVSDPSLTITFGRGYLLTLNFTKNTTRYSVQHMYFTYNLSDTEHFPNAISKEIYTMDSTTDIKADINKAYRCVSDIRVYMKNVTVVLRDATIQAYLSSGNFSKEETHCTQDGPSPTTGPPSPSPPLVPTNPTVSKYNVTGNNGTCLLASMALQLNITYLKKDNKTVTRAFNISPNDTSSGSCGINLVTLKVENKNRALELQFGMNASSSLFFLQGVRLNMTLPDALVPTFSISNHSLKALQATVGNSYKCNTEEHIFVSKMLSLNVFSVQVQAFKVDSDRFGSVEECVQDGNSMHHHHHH", "assay": "ELISA on mouse LAMP1 extracellular domain", "assay_type": "binding", "description": "The high level of glycosylation of the antigen required a specific approach to determine the binding site of the anti-LAMP1 mAbs on LAMP1. […] This absence of binding was used to design several chimeric LAMP1 proteins in which one or several of the LAMP1 domains (Loop1-Loop4) in the human construct were replaced by the murine counterpart. The absence of binding once the binding site of the antibody was replaced by the murine counterpart allowed for identification of the antibody binding side.\nSecreted LAMP1 proteins described in example 6.2 were used to identify the binding domain to anti-LAMP1 mAbs by ELISA."}, "[5]": {"conditions": "mAb alone 0.06 mg/L, Secondary Ab Anti-Human IgG_HRP"}, "[6]": {"conditions": "mAb alone 0.06 mg/L, Secondary Ab Anti-Mouse IgG_HRP"}, "[7]": {"conditions": "mAb alone 15 mg/L, Secondary Ab Anti-Human IgG_HRP"}, "[8]": {"conditions": "mAb alone 15 mg/L, Secondary Ab Anti-Mouse IgG_HRP"}},
  "note": "Entries after “also recorded” stand apart in the source; their conditions may differ.",
  "data": [
    {"molecule": "MAb2: murine monoclonal anti-LAMP1 antibody, VH SEQ ID NO: 8, VL SEQ ID NO: 12 (antibody, V domains shown, antibod fragment; antibody fragment) VH: QVQLQQSAAELARPGASVKMSCKASGYTFTSYTMHWVKQRPGQGLEWIGYFNPSSGYPEYNQKFKDKTTLTADKSSNTAFIQLNSLTSEDSAVYYCSRGYYYGSRGYALDFWGQGASVTVSS VL: NIVLTQSPVSLAVSLGQRATISCRASESVDINGNTFMHWYQQKPGQSPKLVIYAASNIESGVPARFSGSGSSTDFTFTIDPVEADDVATYYCQQNIEDPWTFGGGTKVEIK", "values": [
      {"measurement": "Internalization score (IS) 4° C., 4 hr", "setting": "[1]", "value": 0.19},
      {"measurement": "Internalization score (IS) 37° C., 4 hr", "setting": "[1]", "value": 2.24},
      {"measurement": "competition between MAb2 and MAb3 for binding to LAMP1", "setting": "[2]; ELISA", "value": "partially compete"},
      {"measurement": "competition with H4A3 for binding to LAMP1", "setting": "[2]; ELISA", "value": "partially competes"},
      {"measurement": "competition with MAb1 for binding to LAMP1", "setting": "[2]; ELISA", "value": "No competition was observed; also recorded: does not compete"},
      {"measurement": "Percentage of signal compared to mAb control alone", "setting": "[2]; [5]", "value": 0, "unit": "%"},
      {"measurement": "Percentage of signal compared to mAb control alone", "setting": "[2]; [6]", "value": 100, "unit": "%"},
      {"measurement": "Percentage of signal compared to mAb control alone", "setting": "[2]; [7]", "value": 0, "unit": "%"},
      {"measurement": "Percentage of signal compared to mAb control alone", "setting": "[2]; [8]", "value": 100, "unit": "%"},
      {"measurement": "binding to LAMP2", "setting": "[3]", "value": "No binding"},
      {"measurement": "EC50 (nM) Mouse LAMP1", "setting": "[4]", "value": "do not show any binding; also recorded: No binding"}
    ]},
    {"molecule": "MAb1: murine monoclonal anti-LAMP1 antibody, VH SEQ ID NO: 1, VL SEQ ID NO: 5 (antibody, V domains shown, Antibody Fragment; antibody fragment) VH: QVQLQQSGAELVKPGASVKMSCKASGYIFTNYNIHWVKKSPGQGLEWIGAIYPGNGDAPYSQKFKDKATLTADKSSSTTYMQLSRLTSEDSAVYYCVRANWDVAFAYWGQGTLVSVSA VL: DIQMTQSPPSLSASLGGKVTITCKASQDIDRYMAWYQDKPGKGPRLLIHDTSTLQPGIPSRFSGSGSGRDYSFSISNLEPEDIATYYCLQYDNLWTFGGGTKLEIK", "values": [
      {"measurement": "Internalization score (IS) 4° C., 4 hr", "setting": "[1]", "value": 0.22},
      {"measurement": "Internalization score (IS) 37° C., 4 hr", "setting": "[1]", "value": 2.22},
      {"measurement": "competition with H4A3 for binding to LAMP1", "setting": "[2]; ELISA", "value": "does not compete"},
      {"measurement": "Percentage of signal compared to mAb control alone", "setting": "[2]; [5]", "value": 0, "unit": "%"},
      {"measurement": "Percentage of signal compared to mAb control alone", "setting": "[2]; [6]", "value": 100, "unit": "%"},
      {"measurement": "Percentage of signal compared to mAb control alone", "setting": "[2]; [7]", "value": 0, "unit": "%"},
      {"measurement": "Percentage of signal compared to mAb control alone", "setting": "[2]; [8]", "value": 100, "unit": "%"},
      {"measurement": "binding to LAMP2", "setting": "[3]", "value": "No binding"},
      {"measurement": "EC50 (nM) Mouse LAMP1", "setting": "[4]", "value": "do not show any binding; also recorded: No binding"}
    ]}
  ]
}
